Consider 47 molecules from patent US20210395381A1 (OSSIANIX, published 2021).

For experiment [1], the target named is T1, recombinant mouse TfR-1 (mouse, UniProt Q62351 89-763).
T1 construct: Recombinant protein coated at 1 ug/ml in the phage ELISA; also called mTfR1; mouse transferrin receptor-1
Description: phage ELISA.

Experiment [2] deals with T2, recombinant human TfR-1 (human, UniProt P02786 89-760).
T2 construct: Recombinant protein coated at 1 ug/ml in the phage ELISA; also called hTfR1; human transferrin receptor-1
Description: phage ELISA. A general note: ELISA stands for enzyme-linked immunosorbent assay.

Positions count from the first letter of the chain named.

T2 sequence (P02786 89-760 limits assumed): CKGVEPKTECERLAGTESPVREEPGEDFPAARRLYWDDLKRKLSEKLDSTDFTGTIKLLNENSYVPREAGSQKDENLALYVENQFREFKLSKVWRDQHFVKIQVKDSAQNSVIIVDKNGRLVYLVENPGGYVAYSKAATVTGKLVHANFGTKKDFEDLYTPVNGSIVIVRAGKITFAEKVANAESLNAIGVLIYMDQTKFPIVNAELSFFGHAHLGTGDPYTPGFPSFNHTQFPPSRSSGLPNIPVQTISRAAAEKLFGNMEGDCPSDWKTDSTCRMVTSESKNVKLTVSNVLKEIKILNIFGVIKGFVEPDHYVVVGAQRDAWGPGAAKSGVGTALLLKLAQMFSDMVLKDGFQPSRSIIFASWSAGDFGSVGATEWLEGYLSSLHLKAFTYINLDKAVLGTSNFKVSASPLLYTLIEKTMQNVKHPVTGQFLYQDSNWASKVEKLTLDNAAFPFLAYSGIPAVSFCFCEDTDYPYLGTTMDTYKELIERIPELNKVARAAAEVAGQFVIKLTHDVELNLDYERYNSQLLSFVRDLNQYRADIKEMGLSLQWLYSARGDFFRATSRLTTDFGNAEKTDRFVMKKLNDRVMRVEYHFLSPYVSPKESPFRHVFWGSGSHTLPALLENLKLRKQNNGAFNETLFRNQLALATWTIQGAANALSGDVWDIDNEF
T1 sequence (Q62351 89-763 limits assumed): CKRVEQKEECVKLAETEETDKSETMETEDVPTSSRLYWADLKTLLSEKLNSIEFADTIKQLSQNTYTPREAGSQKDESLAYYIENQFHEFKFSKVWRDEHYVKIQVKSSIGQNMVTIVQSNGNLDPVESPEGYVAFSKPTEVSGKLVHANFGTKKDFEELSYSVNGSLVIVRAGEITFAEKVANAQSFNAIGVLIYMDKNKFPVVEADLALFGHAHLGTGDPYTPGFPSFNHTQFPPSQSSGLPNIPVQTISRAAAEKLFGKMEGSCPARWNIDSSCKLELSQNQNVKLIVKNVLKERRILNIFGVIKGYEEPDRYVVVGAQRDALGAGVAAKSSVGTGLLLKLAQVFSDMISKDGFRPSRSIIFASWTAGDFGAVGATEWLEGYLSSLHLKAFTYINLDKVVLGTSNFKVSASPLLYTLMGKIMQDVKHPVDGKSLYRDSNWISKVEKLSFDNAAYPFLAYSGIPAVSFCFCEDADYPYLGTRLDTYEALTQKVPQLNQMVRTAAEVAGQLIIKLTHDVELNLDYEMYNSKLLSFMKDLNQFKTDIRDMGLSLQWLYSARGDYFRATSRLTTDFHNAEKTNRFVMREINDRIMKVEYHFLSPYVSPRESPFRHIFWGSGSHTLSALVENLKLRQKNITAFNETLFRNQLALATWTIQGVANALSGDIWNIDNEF

B1: Clone 8.29 (VNAR)
VNAR: ARVDQTPQTITKETGESLTINCVLRDSNCALPSTYWYRKKSGSTNEESISKGGRYVETVNSGSKSFSLRINDLTVEDSGTYRCKVIAQLSSILLTCEYRKHDVYGDGTAVTVNA
notes: VNAR on phage; Clone 8 framework
Consider B1, for which the figures for the A450 in experiment [1] and in experiment [2] were 0.077 A450 and 0.059 A450, respectively.

B2: Clone 8.33 (VNAR)
VNAR: B1 VNAR with I86R, A87D, Q88A, L94R, T95G, E97N
notes: as for B1
On to B2, for which the values for the A450 in experiment [1] and in experiment [2] were 0.073 A450 and 0.09 A450, respectively.

B3: Clone 8.75 (VNAR)
VNAR: B1 VNAR with S90T, S91E, I92M, L94R, T95G, E97N
notes: as for B1
For B3, the A450 in experiment [1] is 0.059 A450; in experiment [2], 0.049 A450.

B4: Clone 8.66 (VNAR)
VNAR: B1 VNAR with L94R, T95G, E97N, R99L, K100A
notes: as for B1
B4: the A450 is 0.062 A450 in experiment [1] and 0.052 A450 in experiment [2].

B5: Clone 8.49 (VNAR)
VNAR: B1 VNAR with Q88E, L89M, S90G, L94R, T95G, E97N
notes: as for B1
Regarding B5, the results for the A450 in experiment [1] and in experiment [2] were 0.065 A450 and 0.06 A450, respectively.

B6: Clone 8.52 (VNAR)
VNAR: B1 VNAR with L94R, T95G, E97D, Y98R, R99W
notes: as for B1
On to B6, for which the A450 in experiment [1] turned out to be 0.065 A450; in experiment [2], 0.049 A450.

B7: Clone 8.70 (VNAR)
VNAR: B1 VNAR with L94R, T95G, E97N, R99Q, K100T, H101S
notes: as for B1
Turning to B7, the A450 in experiment [1] turned out to be 0.061 A450; in experiment [2], 0.052 A450.

B8: Clone 8.68 (VNAR)
VNAR: B1 VNAR with L94S, T95S, E97H
notes: as for B1
As to B8, the A450 in experiment [1] was determined as 0.062 A450; in experiment [2], 0.056 A450.

B9: Clone 8.61 (VNAR)
VNAR: B1 VNAR with L94Q, T95R, E97N
notes: as for B1
Consider B9, for which the results for the A450 in experiment [1] and in experiment [2] were 0.063 A450 and 0.067 A450, respectively.

B10: Clone 8.69 (VNAR)
VNAR: B1 VNAR with I92A, L93P, L94A, T95G, E97N
notes: as for B1
Turning to B10, the results for the A450 in experiment [1] and in experiment [2] were 0.061 A450 and 0.065 A450, respectively.

B11: Clone 8.36 (VNAR)
VNAR: B1 VNAR with L94R, T95G, E97N, R99W, K100R, H101W
notes: as for B1
Turning to B11, the A450 in experiment [1] stood at 0.071 A450; in experiment [2] it was 0.058 A450.

B12: Clone 8.31 (VNAR)
VNAR: B1 VNAR with S90I, L94R, T95G, E97N, Y98K, R99N
notes: as for B1
As to B12, the A450 stood at 0.075 A450 in experiment [1] and 0.077 A450 in experiment [2].

B13: Clone 8.48 (VNAR)
VNAR: B1 VNAR with L94R, T95G, E97N, R99M, K100M, H101Y
notes: as for B1
As for B13, the A450 stood at 0.066 A450 in experiment [1] and 0.082 A450 in experiment [2].

B14: Clone 8.50 (VNAR)
VNAR: B1 VNAR with Q88N, L94R, T95G, E97N
notes: as for B1
As to B14, the A450 in experiment [1] amounted to 0.065 A450; in experiment [2], 0.057 A450.

B15: Clone 8.47 (VNAR)
VNAR: B1 VNAR with I86Q, A87T, Q88T, L94R, T95G, E97N
notes: as for B1
For B15, the A450 in experiment [1] turned out to be 0.067 A450; in experiment [2] it was 0.072 A450.

B16: Clone 8.65 (VNAR)
VNAR: B1 VNAR with L93H, L94D, T95G, E97N
notes: as for B1
Turning to B16, the A450 in experiment [1] worked out at 0.062 A450; in experiment [2], 0.081 A450.

B17: Clone 8.53 (VNAR)
VNAR: B1 VNAR with L94R, T95G, E97N, R99A, K100W, H101L
notes: as for B1
B17: the A450 in experiment [1] is 0.065 A450; in experiment [2], 0.051 A450.

B18: Clone 8.43 (VNAR)
VNAR: B1 VNAR with L94K, T95P, E97W
notes: as for B1
For B18, the figures for the A450 in experiment [1] and in experiment [2] were 0.067 A450 and 0.093 A450, respectively.

B19: Clone 8.34 (VNAR)
VNAR: B1 VNAR with L94R, T95G, E97N, R99I, K100A, H101Y
notes: as for B1
In the case of B19, the A450 was 0.072 A450 in experiment [1] and 0.078 A450 in experiment [2].

B20: Clone 8.60 (VNAR)
VNAR: B1 VNAR with E97L
notes: as for B1
Turning to B20, the values for the A450 in experiment [1] and in experiment [2] were 0.063 A450 and 0.073 A450, respectively.

B21: Clone 8.73 (VNAR)
VNAR: B1 VNAR with L94K, T95G, E97N
notes: as for B1
Consider B21, for which the A450 in experiment [1] stood at 0.059 A450; in experiment [2], 0.051 A450.

B22: Clone 8.56 (VNAR)
VNAR: B1 VNAR with L94R, T95G, E97T, Y98F, R99D
notes: as for B1
Turning to B22, the results for the A450 in experiment [1] and in experiment [2] were 0.064 A450 and 0.051 A450, respectively.

B23: Clone 8.32 (VNAR)
VNAR: B1 VNAR with L93W, L94K, T95G, E97K
notes: as for B1
B23: the A450 in experiment [1] stood at 0.074 A450; in experiment [2], 0.065 A450.

B24: Clone 8.63 (VNAR)
VNAR: B1 VNAR with I86Y, A87R, Q88Y, L94R, T95G, E97N
notes: as for B1
Consider B24, for which the A450 in experiment [1] came out at 0.063 A450; in experiment [2] it was 0.071 A450.

B25: Clone 8.45 (VNAR)
VNAR: B1 VNAR with L94R, T95G, E97N, R99N, K100M, H101E
notes: as for B1
In the case of B25, the A450 in experiment [1] is 0.067 A450; in experiment [2], 0.06 A450.

B26: Clone 8.40 (VNAR)
VNAR: B1 VNAR with S90Y, S91V, I92G, L94R, T95G, E97N
notes: as for B1
For B26, the A450 in experiment [1] was 0.07 A450; in experiment [2], 0.066 A450.

B27: Clone 8.54 (VNAR)
VNAR: B1 VNAR with Q88S, L89A, S90V, L94R, T95G, E97N
notes: as for B1
For the molecule B27, the A450 in experiment [1] is 0.065 A450; in experiment [2] it was 0.072 A450.

B28: Clone 8.74 (VNAR)
VNAR: B1 VNAR with I92L, L93Q, L94D, T95G, E97I
notes: as for B1
Consider B28, for which the values for the A450 in experiment [1] and in experiment [2] were 0.059 A450 and 0.061 A450, respectively.

B29: Clone 8.71 (VNAR)
VNAR: B1 VNAR with L94R, T95G, E97T, Y98P, R99H
notes: as for B1
With B29, the A450 in experiment [1] was found to be 0.061 A450; in experiment [2], 0.073 A450.

B30: Clone 8.58 (VNAR)
VNAR: B1 VNAR with I92A, L93G, L94M, T95G, E97N
notes: as for B1
With B30, the A450 in experiment [1] was determined as 0.063 A450; in experiment [2] it was 0.059 A450.

B31: Clone 8.41 (VNAR)
VNAR: B1 VNAR with Q88P, L89Q, S90K, L94R, T95G, E97N, R99H, H101I
notes: as for B1
With B31, the figures for the A450 in experiment [1] and in experiment [2] were 0.068 A450 and 0.072 A450, respectively.

B32: Clone 8.67 (VNAR)
VNAR: B1 VNAR with L94R, T95G, E97V, Y98E, R99P
notes: as for B1
With B32, the A450 in experiment [1] is 0.062 A450; in experiment [2], 0.051 A450.

B33: Clone 8.37 (VNAR)
VNAR: B1 VNAR with I92Q, L93R, L94W, T95G, E97N
notes: as for B1
As to B33, the A450 in experiment [1] came out at 0.071 A450; in experiment [2] it was 0.069 A450.

B34: Clone 8.42 (VNAR)
VNAR: B1 VNAR with S90F, S91I, I92D, L94R, T95G, E97N
notes: as for B1
As for B34, the results for the A450 in experiment [1] and in experiment [2] were 0.068 A450 and 0.062 A450, respectively.

B35: Clone 8.55 (VNAR)
VNAR: B1 VNAR with L94F, T95W, E97A
notes: as for B1
With B35, the A450 stood at 0.064 A450 in experiment [1] and 0.055 A450 in experiment [2].

B36: Clone 8.72 (VNAR)
VNAR: B1 VNAR with L94R, T95G, E97S, Y98G, R99V
notes: as for B1
Take B36: the results for the A450 in experiment [1] and in experiment [2] were 0.06 A450 and 0.063 A450, respectively.

B37: Clone 8.38 (VNAR)
VNAR: B1 VNAR with S90V, S91L, I92N, L94R, T95G, E97N
notes: as for B1
On to B37, for which the figures for the A450 in experiment [1] and in experiment [2] were 0.071 A450 and 0.075 A450, respectively.

B38: Clone 8.30 (VNAR)
VNAR: B1 VNAR with I86S, A87M, Q88L, L94R, T95G, E97N
notes: as for B1
Regarding B38, the results for the A450 in experiment [1] and in experiment [2] were 0.077 A450 and 0.114 A450, respectively.

B39: Clone 8.35 (VNAR)
VNAR: B1 VNAR with Q88E, S90F, L94R, T95G, E97N
notes: as for B1
As to B39, the A450 in experiment [1] turned out to be 0.071 A450; in experiment [2] it was 0.078 A450.

B40: Clone 8.57 (VNAR)
VNAR: B1 VNAR with S90G, S91N, I92L, L94R, T95G, E97N
notes: as for B1
As for B40, the A450 came out at 0.063 A450 in experiment [1] and 0.083 A450 in experiment [2].

B41: Clone 8.51 (VNAR)
VNAR: B1 VNAR with I92D, L93H, L94P, T95G, E97N
notes: as for B1
Consider B41, for which the A450 in experiment [1] worked out at 0.065 A450; in experiment [2] it was 0.058 A450.

B42: Clone 8.44 (VNAR)
VNAR: B1 VNAR with L94R, T95G, E97N, R99L, K100S, H101M
notes: as for B1
Consider B42, for which the A450 in experiment [1] turned out to be 0.067 A450; in experiment [2], 0.056 A450.

B43: Clone 8.46 (VNAR)
VNAR: B1 VNAR with I92Y, L93V, L94V, T95G, E97N
notes: as for B1
Regarding B43, the A450 was 0.067 A450 in experiment [1] and 0.056 A450 in experiment [2].

B44: Clone 8.59 (VNAR)
VNAR: B1 VNAR with I92H, L93D, L94H, T95G, E97N
notes: as for B1
Turning to B44, the A450 was found to be 0.063 A450 in experiment [1] and 0.073 A450 in experiment [2].

B45: Clone 8.62 (VNAR)
VNAR: B1 VNAR with L94R, T95G, E97N, R99A, K100A, H101G
notes: as for B1
On to B45, for which the A450 in experiment [1] is 0.063 A450; in experiment [2] it was 0.056 A450.

B46: Clone 8.64 (VNAR)
VNAR: B1 VNAR with S90A, S91F, I92W, L94R, T95G, E97N
notes: as for B1
In the case of B46, the A450 in experiment [1] is 0.062 A450; in experiment [2] it was 0.083 A450.

B47: Clone 8.39 (VNAR)
VNAR: B1 VNAR with L94D, T95D
notes: as for B1
On to B47, for which the A450 in experiment [1] came to 0.07 A450; in experiment [2], 0.063 A450.
